In patent US20070224189A1:

biological target: extracellular region of human V158 FcγRIIIa fused with glutathione S-Transferase (GST) (human) (UniProt P08637); experiment: AlphaScreen competition
Sequence (P08637 17-208 F176V): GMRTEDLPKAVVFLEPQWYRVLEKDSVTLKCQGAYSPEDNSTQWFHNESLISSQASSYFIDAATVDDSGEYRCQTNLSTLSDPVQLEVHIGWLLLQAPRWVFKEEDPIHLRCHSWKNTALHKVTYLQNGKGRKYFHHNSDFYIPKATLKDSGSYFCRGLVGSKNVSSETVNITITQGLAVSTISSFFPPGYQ

FcγRIIIa Fold [fold vs WT]	Substance
0.05	A327L alemtuzumab (antibody)
0.07	F241E/F243Q/V262T/V264E alemtuzumab (antibody)
0.05	F241E/F243R/V262E/V264R alemtuzumab (antibody)
0.05	F241E/F243Y/V262T/V264R alemtuzumab (antibody)
0.06	F241L/V262I alemtuzumab (antibody)
0.02	F241R/F243Q/V262T/V264R alemtuzumab (antibody)
0.07	F241W/F243W alemtuzumab (antibody)
0.07	L234I/L235D trastuzumab (antibody)
0.04	S239D/D265H/N297D/I332E alemtuzumab (antibody)
0.03	S239D/D265V/N297D/I332E alemtuzumab (antibody)
0.05	S239E/D265Q alemtuzumab (antibody)
0.06	S239E/N297D/I332E alemtuzumab (antibody)
0.03	S267Q/A327S alemtuzumab (antibody)
0.03	T299A alemtuzumab (antibody)
0.05	V264E/N297D/I332E alemtuzumab (antibody)
0.04	Y296N/N297D/I332E alemtuzumab (antibody)
